# Results from patent US20220403025A1.
# Substitutions are numbered along the chain they refer to.
# B1: 1245_P02_G04 (IgG1, made in HEK) (antibody, V domains shown)
# VH: QVQLQQSGPGLVKPSQTLSLTCAISGDSVSSKSAAWNWIRQSPSRGLEWLGRTYYRSKWSTDYAASVKSRITINPDTSKNQLSLQLNSVTPEDTAVYYCARTWSGYVDVWGQGTLVTVSS
# VL: DIQMTQSPPALSASVGDRVTITCRASQDINDWLAWYQHKPGKAPKLLIYDASSLESGVPSRFSGSGSGTEFTLTISSLQPDDFATYYCQQSYSTPQVTFGQGTRLEIK
# B2: AD3gly (defucosylated AD3 made in engineered CHO) (antibody, V domains shown)
# VH: B1 VH with Q1E
# VL: B1 VL
# B3: AD4 (hinge modified AD3, made in CHO) (antibody, V domains shown)
# VH: B1 VH with Q1E
# VL: B1 VL
# B4: AD3 (variant G04, made in CHO) (antibody, V domains shown)
# VH: B1 VH with Q1E
# VL: B1 VL
# B5: 1251_P02_C05 (scFv) (scFv)
# scFv: EVQLLESGGGLVQPGGSLRLSCAASGFTFSSYAMSWVRQAPGKGLEWVSAISGGGGTTYSSDSVKGRFTISRDNSKNTLYLQMNSLRAEDTAVYYCARDSGVAFDIWGQGTLVTVSSGGGGSGGGGSGGGASDIQMTQSPSFLSASVGDRVTITCRASQNIRTWLAWYQQKPGRAPKLLIYDASSLESGVPSRFSGSGSGTDFTLTISSLQPEDFATYYCQQFKRYPPTFGLGTKVEIK
# B6: 1252_P01_C08 (scFv) (scFv)
# scFv: EVQLLESGGGLVQPGRSLRLSCAASGFTVSSNYMSWVRQAPGKGLEWVSVIYSGGSTYYADSVKGRFTISRDNSKNTLYLQMNSLRAEDTAVYYCASPIELGAFDIWGQGTLVTVSSGGGGSGGGGSGGGASSYELTQPPSVSVAPGKTARITCGGNNIGSQSVHWYQQKPGQAPMLVIYYDSDRPSGIPERFSGSNSGNTATLTISRVEAGDEADYYCQVWDSSSDHVVFGGGTKLTVL
# B7: 1139_P01_E04 (scFv) (scFv)
# scFv: QVQLQQSGPGLVKPSQTLSLTCAISGDSVSSNSAAWNWIRQSPSRGLEWLGRTYYRSKWYNDYAVSVRSRITINPDTSKNQFSLQLNSVTPEDTAVYYCARSWNDAFDIWGQGTTVTVSSGGGGSGGGGSGGGASDIVMTQSPSTLSASIGDRVTITCRAGQSISTWLAWYQQKPGKAPKLLIYDASSLESGVPLRFSGSGSGTDFTLTISSLQPEDFATYYCQQSYSTPLTFGGGTKVEIK
# B8: 1245_P02_F07 (scFv) (scFv)
# scFv: QVQLQQSGPGLVKPSQTLSLTCVISGDSVSSNSAAWNWIRQSPSRGLEWLGRTYYRSKWYNDYAVSVKSRITINPDTSKNQFSLQLNSVTPEDTAVYYCARDYYYSMDVWGQGTMVTVSSGGGGSGGGGSGGGASDIQMTQSPSTLSASVGDRVTITCRASQSISSWLAWYQQKPGKAPKLLIYDASSLESGVPLRFSGSGSGTEFTLTISSLQPDDFATYYCQQSHSHPPTFGPGTKVDIK
# B9: 1245_P01_G09 (scFv) (scFv)
# scFv: QVQLQQSGPGLVKPSQTLSLTCAISGDSVSSNSAAWNWIRQSPSRGLEWLGRTYYGSKWYNEYALSVKSRIIINPDTSKNQFSLQLNSVTPEDTAVYYCARDYYYSMDVWGQGTLVTVSSGGGGSGGGGSGGGASDIVMTQSPSTLSASIGDRVTITCRAGQSISTWLAWYQQKPGKAPKLLIYDASSLESGVPLRFSGSGSGTEFTLAISSLQPDDFATYYCQQSYSTPVTFGQGTKVEIK
# B10: 1245_P01_E07 (scFv) (scFv)
# scFv: QVQLVESGGGLVKPGGSLRLSCAASGFTFSDYYMSWIRQAPGKGLEWVSYISSSGSTIYYADSVKGRFTISRDNAKNSLYLQMNSLRAEDTAVYYCARVDYADAFDIWGQGTLVTVSSGGGGSGGGGSGGGASDIQMTQSPSSLSASVGDRVTIACRAGQSIGTYLNWYQQKPGKAPKLLIYVASSLQSGVPSRFSGSGSGTEFTLTISSLQPEDFATYYCQQSYSTLLTFGRGTKVEIK
# B11: 1141_P01_E01 (scFv) (scFv)
# scFv: QVQLVQSGAEVKKPGESLKISCKGSGYSFTSYWIGWVRQMPGKGLEWMGIIYPGDSDTRYSPSFQGQVTISADKSISTAYLQWSSLKASDTAMYYCARHQVDTRTADYWGQGTLVTVSSGGGGSGGGGSGGGASQSALTQPASVSGSPGQSVTISCTGTRSDVGGYNYVSWYQHHPGKAPKLMIYEVSNRPSGVSNRFSGSKSGNTASLTISGLQAEDEADYYCSSYTSTSTLVFGGGTKLTVL
# B12: 1245_P02_G04 (scFv) (scFv)
# scFv: QVQLQQSGPGLVKPSQTLSLTCAISGDSVSSKSAAWNWIRQSPSRGLEWLGRTYYRSKWSTDYAASVKSRITINPDTSKNQLSLQLNSVTPEDTAVYYCARTWSGYVDVWGQGTLVTVSSGGGGSGGGGSGGGASDIQMTQSPPALSASVGDRVTITCRASQDINDWLAWYQHKPGKAPKLLIYDASSLESGVPSRFSGSGSGTEFTLTISSLQPDDFATYYCQQSYSTPQVTFGQGTRLEIK
# B13: 1251_P02_G10 (scFv) (scFv)
# scFv: EVQLVESGGGLVQPGGSLRLSCAASGFTFSDYYMSWIRQAPGKGLEWVSYISSSGSTIYYADSVKGRFTISRDNAKNSLYLQMNSLRAEDTAVYYCARHSWNDAFDIWGRGTLVTVSSGGGGSGGGGSGGGASDIQMTQSPSSLSASVGDRVTITCRASQSISSHLNWYQQKPGKAPKLLIYAASSLQSGVPSRFSASGSGTDFTLTISSLQPEDFATYYCQQSYSTLLTFGGGTKVEIK
# B14: 1251_P02_G10 (IgG1) (antibody, V domains shown)
# VH: EVQLVESGGGLVQPGGSLRLSCAASGFTFSDYYMSWIRQAPGKGLEWVSYISSSGSTIYYADSVKGRFTISRDNAKNSLYLQMNSLRAEDTAVYYCARHSWNDAFDIWGRGTLVTVSS
# VL: DIQMTQSPSSLSASVGDRVTITCRASQSISSHLNWYQQKPGKAPKLLIYAASSLQSGVPSRFSASGSGTDFTLTISSLQPEDFATYYCQQSYSTLLTFGGGTKVEIKR
# Biological target: L1 (DV1-GV4) antigen: soluble heterodimeric γδ TCR in leucine zipper format (TRDV1/TRGV4) (human)
# Test: ELISA (DELFIA, time-resolved fluorometry) on antigen L1, titration of the mAb
# Sequence of L1 (DV1-GV4) antigen: soluble heterodimeric γδ TCR in leucine zipper format (TRDV1/TRGV4) (human) (main, as listed by the source): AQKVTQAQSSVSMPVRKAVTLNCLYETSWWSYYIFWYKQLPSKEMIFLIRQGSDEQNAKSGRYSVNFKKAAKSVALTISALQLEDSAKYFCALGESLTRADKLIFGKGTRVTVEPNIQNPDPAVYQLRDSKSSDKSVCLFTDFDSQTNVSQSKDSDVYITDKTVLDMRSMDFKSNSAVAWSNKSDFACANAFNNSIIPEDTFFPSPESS
row,EC50 (read off the curve) [µg/mL],Binder
1,0.07,B1
2,0.07,B2
3,0.07,B3
4,0.07,B4

# Biological target: L1 (DV1-GV4) antigen: soluble heterodimeric γδ TCR in leucine zipper format (TRDV1/TRGV4) (human)
# Test: DELFIA affinity ranking with 100 nM biotinylated L1
row,"DELFIA signal, 100 nM L1",Binder
1,65300,B5
2,1980,B6
3,23800,B7
4,10400,B8
5,18400,B9
6,163000,B10
7,137000,B11
8,5900,B12
9,17100,B13

# Biological target: L1 (DV1-GV4) antigen: soluble heterodimeric γδ TCR in leucine zipper format (TRDV1/TRGV4) (human)
# Test: SPR (MASS-2), IgG captured via protein G, L1 as analyte, steady-state 1:1 fit
row,Kd [nM],Binder
1,829,B14

# Biological target: Vδ1 γδ T cell receptor on skin-derived γδ T cells (human)
# Test: cell-based or functional assay
row,TCR downregulation (EC50 µg/ml - 3 donors) [µg/mL],Binder
1,0.849,B14
